These results are taken from article PMC3763369 (Structure(London, England:1993), 2013).

For data set [1], the target named is T1, FANCM CTD;FAAP24 (human?;human?, UniProt Q8IYD8;Q9BTP7 1799-2048;1-215, |).
T1 sequence 1: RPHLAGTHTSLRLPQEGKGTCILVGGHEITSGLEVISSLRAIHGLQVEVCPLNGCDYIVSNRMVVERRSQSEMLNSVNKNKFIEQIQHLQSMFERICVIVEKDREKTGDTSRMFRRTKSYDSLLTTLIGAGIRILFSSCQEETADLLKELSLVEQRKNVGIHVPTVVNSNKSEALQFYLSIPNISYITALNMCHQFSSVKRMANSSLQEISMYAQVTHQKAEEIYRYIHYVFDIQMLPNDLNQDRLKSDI
T1 sequence 2: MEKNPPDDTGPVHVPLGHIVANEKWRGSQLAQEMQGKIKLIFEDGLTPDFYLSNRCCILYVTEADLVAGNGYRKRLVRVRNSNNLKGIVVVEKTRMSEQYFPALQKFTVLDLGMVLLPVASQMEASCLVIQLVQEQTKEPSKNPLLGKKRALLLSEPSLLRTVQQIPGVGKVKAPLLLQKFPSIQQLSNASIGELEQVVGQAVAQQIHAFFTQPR
Kind of data set: X-ray crystallography.

Data set [2] deals with T2, FANCM C-terminal fragment (FANCMCTD), residues 1,799-2,048 (human, UniProt Q8IYD8 1799-2048).
T2 sequence (looked up): T1 sequence 1
Kind of data set: crystal structure.

For data set [3], the target named is full-length FANCM (N-terminal Flag-tag, C-terminal 8His-tag) (human, UniProt Q8IYD8 1-2048). Put plainly: negative-stain single particle electron microscopy.

B1: 11 bp crystallization duplex (dsDNA)
DNA 1: GATGATGCTGA
DNA 2: TCAGCATCATC
B1: the binding result in data set [1] is reported as “binds”.

B2: FAAP24 (full length), partner in the FANCMCTD-FAAP24 complex (natural protein, human, UniProt Q9BTP7 1-215, looked up)
chain: T1 sequence 2
As for B2, in data set [2], the binding result was “binds”.

B3: FAAP24, untagged, co-expressed with full-length FANCM (natural protein, human, UniProt Q9BTP7 1-215, looked up)
chain: T1 sequence 2
For the molecule B3, in data set [3], the binding result is given as “binds”.
